# In article doi:10.1101/2021.08.20.457142:
# B1: MKK6 D-site peptide / p38-alpha (MAPK14) L195A, full length (parent complex)
# chain 1: SQSKGKKRNPGLKIPKEAFEQP
# chain 2: MSQERPTFYRQELNKTVWEVPERYQNLSPVGSGAYGSVCAAFDTKTGHRVAVKKLSRPFQSIIHAKRTYRELRLLKHMKHENVIGLLDVFTPARSLEEFNDVYLVTHLMGADLNNIVKCQKLTDDHVQFLIYQILRGLKYIHSADIIHRDLKPSNLAVNEDCELKILDFGLARHTDDEMTGYVATRWYRAPEIMANWMHYNQTVDIWSVGCIMAELLTGRTLFPGTDHIDQLKLILRLVGTPGAELLKKISSESARNYIQSLAQMPKMNFANVFIGANPLAVDLLEKMLVLDSDKRITAAQALAHAYFAQYHDPDDEPVAEPYDQSFESRDFLIDEWKSLTYDEVISFVPPPLDQEEMES
# Variants of: B1
row,screen value,Variant
1,1.67 Z-score of the enrichment rate within one screen of 711 sequences,chain 1 SQSKTKKRNPGLKIPKEAFEQP [chain 1 G5T]
2,1.65 Z-score of the enrichment rate within one screen of 711 sequences,chain 1 SQSKSKKRNPGLKIPKEAFEQP [chain 1 G5S]
3,1.64 Z-score of the enrichment rate within one screen of 711 sequences,chain 1 SQSKNKKRNPGLKIPKEAFEQP [chain 1 G5N]
4,3.61 Z-score of the enrichment rate within one screen of 711 sequences,chain 1 SQSKFKKRNPGLKIPKEAFEQP [chain 1 G5F]
5,-1.3 Z-score of the enrichment rate within one screen of 711 sequences,chain 1 SQSKGKKRNPGLKTPKEAFEQP [chain 1 I14T]
6,-0.966 Z-score of the enrichment rate within one screen of 711 sequences,chain 1 SQSKGKKRNPGLKKPKEAFEQP [chain 1 I14K]
7,0.87 Z-score of the enrichment rate within one screen of 711 sequences,"chain 1 SQSKGKKRNAGLKIAKEAFEQP [chain 1 P10A, chain 1 P15A]"
8,0.683 Z-score of the enrichment rate within one screen of 711 sequences,chain 1 SQSKGKKRNPSLKIPKEAFEQP [chain 1 G11S]
9,2.42 Z-score of the enrichment rate within one screen of 711 sequences,chain 1 SQKKGKKRNPGLKIPKEAFEQP [chain 1 S3K]
10,0.822 Z-score of the enrichment rate within one screen of 711 sequences,chain 1 SQEKGKKRNPGLKIPKEAFEQP [chain 1 S3E]
11,0.126 Z-score of the enrichment rate within one screen of 711 sequences,chain 1 SQSKGKKNNPGLKIPKEAFEQP [chain 1 R8N]
12,-0.5 Z-score of the enrichment rate within one screen of 711 sequences,chain 1 SQSKGKKENPGLKIPKEAFEQP [chain 1 R8E]
13,0.23 Z-score of the enrichment rate within one screen of 711 sequences,chain 1 SQSKGKKLNPGLKIPKEAFEQP [chain 1 R8L]
14,-1.2 Z-score of the enrichment rate within one screen of 711 sequences,"chain 1 SQSKGKARNPGAKIPKEAFEQP [chain 1 K7A, chain 1 L12A]"
15,-0.931 Z-score of the enrichment rate within one screen of 711 sequences,"chain 1 SQSKGKKRNPGAKIPAEAFEQP [chain 1 L12A, chain 1 K16A]"
16,-0.0907 Z-score of the enrichment rate within one screen of 711 sequences,chain 1 SQSKGKKRNPGLNIPKEAFEQP [chain 1 K13N]
17,0.592 Z-score of the enrichment rate within one screen of 711 sequences,chain 1 SQSKGKKRNPGLWIPKEAFEQP [chain 1 K13W]
18,-0.836 Z-score of the enrichment rate within one screen of 711 sequences,chain 1 SQSKGKKRNPGLPIPKEAFEQP [chain 1 K13P]
19,-0.0532 Z-score of the enrichment rate within one screen of 711 sequences,chain 1 SQSKGKKRNPGLSIPKEAFEQP [chain 1 K13S]
20,-0.412 Z-score of the enrichment rate within one screen of 711 sequences,chain 1 SQSKGKKRNPGLAIPKEAFEQP [chain 1 K13A]
21,-0.943 Z-score of the enrichment rate within one screen of 711 sequences,chain 1 SQSKGKKRNPGLDIPKEAFEQP [chain 1 K13D]
22,-0.274 Z-score of the enrichment rate within one screen of 711 sequences,chain 1 SQSKGKKRNPGLLIPKEAFEQP [chain 1 K13L]
23,0.352 Z-score of the enrichment rate within one screen of 711 sequences,chain 1 SQSKGKKRNPGLTIPKEAFEQP [chain 1 K13T]
24,0.144 Z-score of the enrichment rate within one screen of 711 sequences,chain 1 SQSKGKKRNPGLVIPKEAFEQP [chain 1 K13V]
25,0.151 Z-score of the enrichment rate within one screen of 711 sequences,chain 1 SQSKGKKRNPGLKIPTEAFEQP [chain 1 K16T]

row,screen value,Variant
1,0.247 Z-score of the enrichment rate within one screen of 711 sequences,chain 1 SQSKGKKRNPGLKIPQEAFEQP [chain 1 K16Q]
2,0.653 Z-score of the enrichment rate within one screen of 711 sequences,chain 1 SQSKGAKRNPGLKIPKEAFEQP [chain 1 K6A]
3,0.748 Z-score of the enrichment rate within one screen of 711 sequences,chain 1 SQSKGVKRNPGLKIPKEAFEQP [chain 1 K6V]
4,1.3 Z-score of the enrichment rate within one screen of 711 sequences,"chain 1 SQAKGKKRAPGLKIPKEAFEQP [chain 1 S3A, chain 1 N9A]"
5,2.65 Z-score of the enrichment rate within one screen of 711 sequences,"chain 1 SQSKAKKRNPGLKIAKEAFEQP [chain 1 G5A, chain 1 P15A]"
6,-1.12 Z-score of the enrichment rate within one screen of 711 sequences,"chain 1 SQSKGKKRNPGLKAAKEAFEQP [chain 1 I14A, chain 1 P15A]"
7,1.24 Z-score of the enrichment rate within one screen of 711 sequences,chain 1 SQSKGKKRNPGLKITKEAFEQP [chain 1 P15T]
8,4.38 Z-score of the enrichment rate within one screen of 711 sequences,chain 1 SQSKGKKRNPGLKICKEAFEQP [chain 1 P15C]
9,-1.08 Z-score of the enrichment rate within one screen of 711 sequences,"chain 1 SQSKGAKRNPGLKAPKEAFEQP [chain 1 K6A, chain 1 I14A]"
10,-1.06 Z-score of the enrichment rate within one screen of 711 sequences,chain 1 SQSKGKKRNPGTKIPKEAFEQP [chain 1 L12T]
11,-1 Z-score of the enrichment rate within one screen of 711 sequences,chain 1 SQSKGKKRNPGHKIPKEAFEQP [chain 1 L12H]
12,0.0296 Z-score of the enrichment rate within one screen of 711 sequences,"chain 1 SQSKGKARNPGLKIPAEAFEQP [chain 1 K7A, chain 1 K16A]"
13,-0.226 Z-score of the enrichment rate within one screen of 711 sequences,"chain 1 SQSKGKARNAGLKIPKEAFEQP [chain 1 K7A, chain 1 P10A]"
14,0.158 Z-score of the enrichment rate within one screen of 711 sequences,chain 1 SQSKGKKRNSGLKIPKEAFEQP [chain 1 P10S]
15,0.699 Z-score of the enrichment rate within one screen of 711 sequences,chain 1 SQSKGKKRNTGLKIPKEAFEQP [chain 1 P10T]
16,0.502 Z-score of the enrichment rate within one screen of 711 sequences,chain 1 SQSKGKKRNMGLKIPKEAFEQP [chain 1 P10M]
17,-0.745 Z-score of the enrichment rate within one screen of 711 sequences,"chain 1 SQSKGKKRNPGLAAPKEAFEQP [chain 1 K13A, chain 1 I14A]"
18,0.354 Z-score of the enrichment rate within one screen of 711 sequences,"chain 1 SQSKGAKRNPGLKIPAEAFEQP [chain 1 K6A, chain 1 K16A]"
19,0.543 Z-score of the enrichment rate within one screen of 711 sequences,chain 1 SQSGGKKRNPGLKIPKEAFEQP [chain 1 K4G]
20,0.747 Z-score of the enrichment rate within one screen of 711 sequences,chain 1 SQSYGKKRNPGLKIPKEAFEQP [chain 1 K4Y]
21,0.242 Z-score of the enrichment rate within one screen of 711 sequences,chain 1 SQSEGKKRNPGLKIPKEAFEQP [chain 1 K4E]
22,0.526 Z-score of the enrichment rate within one screen of 711 sequences,chain 1 SQSCGKKRNPGLKIPKEAFEQP [chain 1 K4C]
23,-0.807 Z-score of the enrichment rate within one screen of 711 sequences,chain 1 SQSKGKDRNPGLKIPKEAFEQP [chain 1 K7D]
24,0.9 Z-score of the enrichment rate within one screen of 711 sequences,chain 1 SQSKGKSRNPGLKIPKEAFEQP [chain 1 K7S]
25,1.83 Z-score of the enrichment rate within one screen of 711 sequences,chain 1 SQSKGKLRNPGLKIPKEAFEQP [chain 1 K7L]
